The record followed here is patent US20110281938, “APTAMERS TO TISSUE FACTOR PATHWAY INHIBITOR AND THEIR USE AS BLEEDING DISORDER THERAPEUTICS” (Baxter Healthcare S.A., published 2011).

The target of data set [1] is T1, TFPI (tissue factor pathway inhibitor, full-length) (Homo sapiens, UniProt P10646 SEQ:1-276). In words: competition; fails binding-competition criterion; CAT and FXa yes. The settings on record: tags: American Diagnostica 4500PC/4900PC, E. coli expressed. As to the method:
Each molecule was evaluated for binding to tissue factor pathway inhibitor (TFPI) in a binding-competition assay. For these experiments, 10 nM human TFPI (American Diagnostica, Stamford, Conn., catalog #4500PC) was incubated with trace amounts of radiolabeled ARC17480 and 5000 nM, 1666.67 nM, 555.56 nM, 185.19 nM, 61.73 nM, 20.58 nM, 6.86 nM, 2.29 nM, 0.76 nM or 0.25 nM of unlabeled competitor aptamer. ARC17480 was included as a competitor in every experiment as a control. For each molecule, the percentage of radiolabeled ARC17480 bound at each competitor aptamer concentration was used for analysis. The percentage of radiolabeled ARC17480 bound was plotted as a function of aptamer concentration and fit to the equation y=(max/(1+x/IC₅₀))+int, where y=the percentage of radiolabeled ARC17480 bound, x=the concentration of aptamer, max=the maximum radiolabeled ARC17480 bound, and int=the y-intercept, to generate an IC₅₀ value for binding-competition. The IC₅₀ of each aptamer was compared to the IC₅₀ of ARC17480 that was evaluated in the same experiment. A substitution was considered tolerated in the binding-competition assay if the IC₅₀ of that molecule was not more than 5-fold greater than that of ARC17480 evaluated in the same experiment. Tolerated substitutions are indicated in Table 38 as meeting the assay criteria (“yes”) or not meeting the assay criteria (“no”).

The next data set deals with alpha-Thrombin (UniProt P00734;P00734 P00734:328-363,P00734:364-622). The data set is described as follows: filter; no significant affinity up to 0.5-1 uM.
The next data set addresses Kallikrein (UniProt P03952;P03952 P03952:20-390,P03952:391-638). The data set is described as follows: filter; no significant affinity up to 0.5-1 uM. To be noted: label: radiolabel.
A further data set deals with Factor IXa (UniProt P00740;P00740 P00740:47-191,P00740:227-461). The data set is described as follows: filter; no significant affinity up to 0.5-1 uM. The settings on record: label: radiolabel.
The target in another data set is Factor XIa (UniProt P03951;P03951 P03951:19-387,P03951:388-625). The data set is described as follows: filter; no significant affinity up to 0.5-1 uM. To be noted: chain copies: 2; label: radiolabel.
A further data set concerns the target T2, TFPI-2 (UniProt P48307 P48307:23-235).
T2 sequence: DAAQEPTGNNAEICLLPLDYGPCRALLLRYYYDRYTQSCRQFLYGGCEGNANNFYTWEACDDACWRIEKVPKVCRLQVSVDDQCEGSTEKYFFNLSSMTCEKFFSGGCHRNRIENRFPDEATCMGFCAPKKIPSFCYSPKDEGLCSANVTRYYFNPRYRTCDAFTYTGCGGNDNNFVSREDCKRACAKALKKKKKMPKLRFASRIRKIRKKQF
The data set is described as follows: filter; no significant affinity up to 0.5-1 uM. The settings on record: label: radiolabel.

In the next data set the target is Antithrombin (ATIII) (UniProt P01008 P01008:33-464). In words: filter; no significant affinity up to 0.5-1 uM. The settings on record: label: radiolabel.
For a further data set, the target named is Factor Xa (UniProt P00742;P00742 P00742:41-179,P00742:235-488). In words: filter; no significant affinity up to 0.5-1 uM. To be noted: label: radiolabel.
A further data set has as its target Factor Va (UniProt P12259;P12259 P12259:29-737,P12259:1574-2224). In words: filter; no significant affinity up to 0.5-1 uM. The settings on record: label: radiolabel.
The next data set concerns the target Plasmin (UniProt P00747;P00747 P00747:97-580,P00747:581-810). In words: filter; no significant affinity up to 0.5-1 uM. To be noted: label: radiolabel.
Data set [2] has as its target alpha-1 antitrypsin (serpin-A1) (UniProt P01009 P01009:25-418). In words: filter; no significant affinity up to 0.5-1 uM. The settings on record: label: radiolabel.
The next data set has as its target Prothrombin (UniProt P00734 P00734:44-622). The data set is described as follows: filter; no significant affinity up to 0.5-1 uM. To be noted: label: radiolabel.
The next data set deals with Factor VIIa (UniProt P08709;P08709 P08709:61-212,P08709:213-466). The data set is described as follows: filter; no significant affinity up to 0.5-1 uM. The settings on record: label: radiolabel.
A further data set addresses T3, Heparin cofactor II (UniProt P05546 P05546:20-499).
T3 sequence: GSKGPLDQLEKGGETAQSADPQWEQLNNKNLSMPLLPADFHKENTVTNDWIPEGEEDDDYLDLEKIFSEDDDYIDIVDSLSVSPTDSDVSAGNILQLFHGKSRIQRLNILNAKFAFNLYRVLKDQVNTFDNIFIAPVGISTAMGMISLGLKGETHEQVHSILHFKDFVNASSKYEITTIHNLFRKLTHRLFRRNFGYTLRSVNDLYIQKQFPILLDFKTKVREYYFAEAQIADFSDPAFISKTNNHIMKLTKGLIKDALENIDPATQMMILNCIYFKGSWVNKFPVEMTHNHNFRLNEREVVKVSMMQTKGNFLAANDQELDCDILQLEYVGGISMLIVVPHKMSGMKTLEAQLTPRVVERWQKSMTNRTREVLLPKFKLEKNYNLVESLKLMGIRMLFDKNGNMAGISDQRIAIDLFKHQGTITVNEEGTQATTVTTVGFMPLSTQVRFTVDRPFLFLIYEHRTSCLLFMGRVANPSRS
The data set is described as follows: filter; no significant affinity up to 0.5-1 uM. The settings on record: label: radiolabel.

The next data set has as its target Truncated TFPI-K1K2 (UniProt P10646 SEQ:1-161). In words: filter; no detectable binding up to 500 nM. The settings on record: tags: American Diagnostica, E. coli expressed; label: radiolabel. As to the method: Trace amounts of radiolabeled ARC17480 were incubated with different concentrations of truncated TFPI-K1K2 (500 nM-0.008 nM) and the K3-C-terminal domain protein (500 nM-0.7 nM) (Table 1). […] Trace amounts of radiolabeled ARC17480 were incubated with different concentrations of the C-terminal peptide (10 μM-0.17 nM) (Table 1). Neutravidin (˜100 nM monomer) was then added to the binding solution to assist in the capture of aptamer:peptide complexes on a nitrocellulose filter. The amount of radiolabeled aptamer captured on a nitrocellulose filter was quantitated and compared to the total amount of radiolabeled aptamer to generate a binding curve, which is shown in FIG. 17B.

In data set [3] the target is T1, TFPI (tissue factor pathway inhibitor, …). The data set is described as follows: competition; dot-blot vs radiolabeled ARC17480, 10 nM TFPI. The settings on record: tags: American Diagnostica 4500PC/4900PC, E. coli expressed. The procedure: Each molecule was evaluated for binding to tissue factor pathway inhibitor (TFPI) in a binding-competition assay. For these experiments, 10 nM human TFPI (American Diagnostica, Stamford, Conn., catalog #4500PC) was incubated with trace amounts of radiolabeled ARC17480 and 5000 nM, 1666.67 nM, 555.56 nM, 185.19 nM, 61.73 nM, 20.58 nM, 6.86 nM, 2.29 nM, 0.76 nM or 0.25 nM of unlabeled competitor aptamer. ARC17480 was included as a competitor in every experiment as a control. For each molecule, the percentage of radiolabeled ARC17480 bound at each competitor aptamer concentration was used for analysis. The percentage of radiolabeled ARC17480 bound was plotted as a function of aptamer concentration and fit to the equation y=(max/(1+x/IC₅₀))+int, where y=the percentage of radiolabeled ARC17480 bound, x=the concentration of aptamer, max=the maximum radiolabeled ARC17480 bound, and int=the y-intercept, to generate an IC₅₀ value for binding-competition. The IC₅₀ of each aptamer was compared to the IC₅₀ of ARC17480 that was evaluated in the same experiment. A substitution was considered tolerated in the binding-competition assay if the IC₅₀ of that molecule was not more than 5-fold greater than that of ARC17480 evaluated in the same experiment. Tolerated substitutions are indicated in Table 37 as meeting the assay criteria (“yes”) or not meeting the assay criteria (“no”).

Data set [4] shares this target. In words: competition; dot-blot, 10 nM TFPI. To be noted: tags: American Diagnostica 4500PC/4900PC, E. coli expressed. The procedure: The substituted ARC17480 molecules were assayed for binding and function. The assays used for this evaluation were the calibrated automated thrombogram (CAT) assay, a dot-blot binding-competition assay and a FXa activity assay. The results of these assays are summarized in Table 40 and depicted in FIG. 147. A mutation was considered tolerated for activity if it met the criteria of at least two of the three assays that were carried out. Mutations that are tolerated (“yes”) and not tolerated (“no”) are identified in Table 40. The experimental details and the criteria used for each assay are described in the following paragraphs. The molecules described in this example were first tested in the CAT assay and the dot-blot binding-competition assay. In most cases, molecules were only tested in the FXa assay if there was a discrepancy between the results in the CAT assay and the dot-blot binding-competition assay.
Each molecule was evaluated for binding to tissue factor pathway inhibitor (TFPI) in a binding-competition assay. […] The IC₅₀ of each aptamer was compared to the IC₅₀ of ARC17480 that was evaluated in the same experiment. A mutation was considered tolerated in the binding-competition assay if the IC₅₀ of that molecule was not more than 5-fold greater than that of ARC17480 evaluated in the same experiment. […]

Bounds are passed on as bounds.

UAUACUUGGCUCGUUAGGUGCGUAU (mixed, 2'-OMe A/G/U, 2'-deoxy C, 3' idT) [ARC33889]: in data set [1], the binding signal is > 5 fold IC50 of ARC17480.

As to GGAAUAUACUUGGCUCGUUAGGUGCGUAUAUA (mixed, 2'-OMe A/G/U, 2'-deoxy C, 3' idT) [ARC17480], the binding result in the data set with alpha-Thrombin, in the data set with Kallikrein, with Factor IXa, in the data set with Factor XIa, with TFPI-2 and in the data set with Antithrombin (ATIII) was “no binding” throughout. In addition, the binding result (with Factor Xa; in the data set with Factor Va; in the data set with Plasmin; in [2]; in the data set with Prothrombin; in the data set with Factor VIIa) was “no binding” throughout. The binding result with Heparin cofactor II and with Truncated TFPI-K1K2 was “no binding” each time.

Consider GGAAUAUACUUGGCUCGUUAGGUGCGUAUAUA (XNA, 2'-OMe except dC9, dC16, dC25; 2'-OMe C14; 3' idT) [ARC18539], for which the binding signal in data set [3] was at most 5 fold IC50 vs ARC17480.

As for AGAAUAUACUUGGCUCGUUAGGUGCGUAUAUA (XNA, 2'-OMe except dC9, dC14, dC16, dC25; 3' idT) [ARC34856], the binding signal in data set [4] was at most 5 fold IC50 vs ARC17480.
